Test results from patent CN105585631A (BEIJING HEALTH GUARD BIOTECHNOLOGY CO LTD, dated 2016).

B1: 单克隆抗体4G12 (杂交瘤细胞株4G12, CGMCC 11298) (antibody, V domains shown)
VH: VKLQQSGAELVKPGASVKLSCTASGFNIKDTYMHWVKQRPEQGLEWIGRIDPANGNPQYDPKFQGKATITADTSSNTACLQLSSLTSEDTAVFYCAREVGGYYFDYWGQGTTVTVSS
VL: DIQLTRSPAIMSASPGEKVTITCSASSSVSYMHWFQQKPGTSPKLWIYSTSNLASGVPARFSGSGSGTSYSLTISRMEAEDAATYYCQQRSSYPWTFGGGTKLEI
B2: 单克隆抗体5A6 (杂交瘤细胞株5A6, CGMCC 11299) (antibody, V domains shown)
VH: VKLQQSGAELVKPGASVKLSCTASGFNIKDTYMHWVKQRPEQGLEWIGRIDPANGNTEYDPNFQGKATITSDTSSNTAYLHLSSLTSEDTAVYYCAREVGGYYFDYWGQGTTVTVSS
VL: DIQLTQSPSSMSASLGDRITITCQATQDIVKNLNWYQQKPGKPPSFLIYYATELAEGVPSRFSGSGSGSDYSLTISNLESEDFADYYCLQFYEFPLTFGAGTKLEI
notes: Capture antibody of the sandwich kit; also called 克隆5A6

Columns and labels:
[1] = target: HPV-16 L1 VLP (重组人乳头瘤病毒-16型VLP蛋白, 未变性) (人乳头瘤病毒16型 (HPV16)) (UniProt P03101); test: indirect ELISA, native VLP 2 ug/ml coated, antibody 0.3 ug/ml
Chain of UniProt P03101 (P03101 whole entry): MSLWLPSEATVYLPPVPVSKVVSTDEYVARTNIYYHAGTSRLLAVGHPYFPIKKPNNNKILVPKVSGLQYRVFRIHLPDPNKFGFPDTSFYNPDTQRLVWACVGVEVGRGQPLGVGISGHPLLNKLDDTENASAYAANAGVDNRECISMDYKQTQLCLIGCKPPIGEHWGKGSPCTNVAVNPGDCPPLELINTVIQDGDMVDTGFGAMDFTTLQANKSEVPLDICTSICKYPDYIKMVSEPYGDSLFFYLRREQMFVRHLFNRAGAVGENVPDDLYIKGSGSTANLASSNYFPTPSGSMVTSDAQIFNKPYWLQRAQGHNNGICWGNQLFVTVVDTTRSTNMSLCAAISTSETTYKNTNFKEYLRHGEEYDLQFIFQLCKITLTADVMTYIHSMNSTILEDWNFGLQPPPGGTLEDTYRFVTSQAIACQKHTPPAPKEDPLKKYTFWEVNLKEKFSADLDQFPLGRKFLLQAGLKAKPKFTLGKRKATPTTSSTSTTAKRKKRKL

[2] = target: HPV-16 L1 VLP (重组人乳头瘤病毒-16型VLP蛋白, 未变性) (人乳头瘤病毒16型 (HPV16)) (UniProt P03101); test: indirect ELISA, HPV16 VLP 200 ng/well coated, antibody at 1, 0.2 and 0.04 ug/ml
[3] = target: HPV-16 L1 VLP (重组人乳头瘤病毒-16型VLP蛋白, 未变性) (人乳头瘤病毒16型 (HPV16)) (UniProt P03101); test: competition ELISA on coated HPV16 VLP; HRP-labelled antibody 0.3 ug/ml; competitor: WHO international standard 05/134 at 0.5 IU/ml
[4] = target: T1, HPV6 VLP (HPV6, UniProt P69899 1-500); test: SPR, BIACORE 3000
T1 sequence: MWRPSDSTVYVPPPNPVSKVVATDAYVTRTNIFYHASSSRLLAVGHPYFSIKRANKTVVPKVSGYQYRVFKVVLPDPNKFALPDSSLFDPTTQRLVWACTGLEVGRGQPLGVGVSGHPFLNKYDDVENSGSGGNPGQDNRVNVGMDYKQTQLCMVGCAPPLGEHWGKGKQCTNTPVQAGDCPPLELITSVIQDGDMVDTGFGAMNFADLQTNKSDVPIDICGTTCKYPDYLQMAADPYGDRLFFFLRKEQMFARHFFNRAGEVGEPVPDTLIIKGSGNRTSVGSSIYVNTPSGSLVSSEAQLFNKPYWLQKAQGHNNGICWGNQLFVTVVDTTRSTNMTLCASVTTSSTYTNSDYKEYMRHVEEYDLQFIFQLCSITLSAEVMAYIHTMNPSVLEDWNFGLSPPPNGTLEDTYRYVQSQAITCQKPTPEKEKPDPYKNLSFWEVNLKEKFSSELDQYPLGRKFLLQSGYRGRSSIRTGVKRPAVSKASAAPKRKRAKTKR

[5] = target: T2, HPV11 VLP (HPV11, UniProt P04012 1-501); test: SPR, BIACORE 3000
T2 sequence: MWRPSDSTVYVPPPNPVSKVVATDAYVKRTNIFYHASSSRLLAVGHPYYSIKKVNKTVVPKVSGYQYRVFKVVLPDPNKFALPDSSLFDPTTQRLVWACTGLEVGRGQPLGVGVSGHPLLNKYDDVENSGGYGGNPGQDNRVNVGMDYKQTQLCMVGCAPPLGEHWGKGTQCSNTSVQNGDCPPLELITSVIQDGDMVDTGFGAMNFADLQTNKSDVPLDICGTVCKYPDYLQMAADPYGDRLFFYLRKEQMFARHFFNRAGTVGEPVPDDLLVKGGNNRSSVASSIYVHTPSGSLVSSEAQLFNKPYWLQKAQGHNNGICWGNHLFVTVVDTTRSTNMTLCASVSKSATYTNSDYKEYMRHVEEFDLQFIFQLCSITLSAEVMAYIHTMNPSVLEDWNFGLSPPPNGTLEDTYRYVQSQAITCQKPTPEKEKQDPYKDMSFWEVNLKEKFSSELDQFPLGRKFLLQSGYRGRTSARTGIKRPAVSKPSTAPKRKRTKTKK

[6] = target: T3, HPV31 VLP (HPV31, UniProt P17388 1-504); test: SPR, BIACORE 3000
T3 sequence: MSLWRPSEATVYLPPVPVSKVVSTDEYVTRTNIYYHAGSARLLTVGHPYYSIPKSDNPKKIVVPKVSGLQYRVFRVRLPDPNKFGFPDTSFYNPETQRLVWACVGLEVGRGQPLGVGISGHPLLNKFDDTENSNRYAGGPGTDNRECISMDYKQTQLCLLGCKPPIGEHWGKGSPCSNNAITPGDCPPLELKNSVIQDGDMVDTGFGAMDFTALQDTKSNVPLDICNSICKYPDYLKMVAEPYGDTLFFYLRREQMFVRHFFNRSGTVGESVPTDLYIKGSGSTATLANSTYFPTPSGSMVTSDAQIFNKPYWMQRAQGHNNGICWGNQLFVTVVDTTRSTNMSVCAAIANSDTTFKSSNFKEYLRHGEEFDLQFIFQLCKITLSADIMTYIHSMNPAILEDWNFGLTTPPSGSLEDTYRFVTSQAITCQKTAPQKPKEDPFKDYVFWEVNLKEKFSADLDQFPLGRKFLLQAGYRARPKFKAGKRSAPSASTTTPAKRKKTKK

[7] = target: T4, HPV33 VLP (HPV33, UniProt P06416 1-499); test: SPR, BIACORE 3000
T4 sequence: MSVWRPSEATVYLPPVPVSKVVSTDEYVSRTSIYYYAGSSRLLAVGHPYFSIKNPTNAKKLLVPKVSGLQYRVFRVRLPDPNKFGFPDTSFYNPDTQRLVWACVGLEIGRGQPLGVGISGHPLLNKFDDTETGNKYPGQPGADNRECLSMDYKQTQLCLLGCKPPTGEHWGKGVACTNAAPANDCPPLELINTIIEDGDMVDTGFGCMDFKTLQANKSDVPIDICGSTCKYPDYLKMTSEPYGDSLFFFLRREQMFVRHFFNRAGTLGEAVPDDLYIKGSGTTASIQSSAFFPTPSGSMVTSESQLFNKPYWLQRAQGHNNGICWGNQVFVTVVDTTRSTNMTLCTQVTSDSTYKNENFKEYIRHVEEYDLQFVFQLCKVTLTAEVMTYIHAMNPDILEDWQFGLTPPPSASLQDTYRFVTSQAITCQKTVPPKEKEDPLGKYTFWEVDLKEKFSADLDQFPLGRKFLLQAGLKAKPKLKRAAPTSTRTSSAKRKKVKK

[8] = target: T5, HPV45 VLP (HPV45, UniProt P36741 30-539); test: SPR, BIACORE 3000
T5 sequence: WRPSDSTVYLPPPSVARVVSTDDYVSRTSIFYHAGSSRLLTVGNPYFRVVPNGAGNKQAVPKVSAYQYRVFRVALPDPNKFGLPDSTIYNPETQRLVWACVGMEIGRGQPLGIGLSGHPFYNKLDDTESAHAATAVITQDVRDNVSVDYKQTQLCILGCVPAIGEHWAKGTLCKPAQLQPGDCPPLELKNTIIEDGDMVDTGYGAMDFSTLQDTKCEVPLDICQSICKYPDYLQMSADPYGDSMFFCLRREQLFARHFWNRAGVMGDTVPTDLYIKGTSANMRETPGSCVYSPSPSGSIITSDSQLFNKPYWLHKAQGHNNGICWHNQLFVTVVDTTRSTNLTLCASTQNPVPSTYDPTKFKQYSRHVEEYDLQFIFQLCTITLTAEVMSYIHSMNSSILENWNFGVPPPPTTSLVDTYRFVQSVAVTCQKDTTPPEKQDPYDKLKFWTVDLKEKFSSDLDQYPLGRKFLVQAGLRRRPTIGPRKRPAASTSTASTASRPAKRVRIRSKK

[9] = target: T6, HPV-18 L1 VLP (HPV18, UniProt P06794 62-568); test: indirect ELISA, VLP 2 ug/ml coated
T6 construct: also called HPV18 VLP
T6 sequence: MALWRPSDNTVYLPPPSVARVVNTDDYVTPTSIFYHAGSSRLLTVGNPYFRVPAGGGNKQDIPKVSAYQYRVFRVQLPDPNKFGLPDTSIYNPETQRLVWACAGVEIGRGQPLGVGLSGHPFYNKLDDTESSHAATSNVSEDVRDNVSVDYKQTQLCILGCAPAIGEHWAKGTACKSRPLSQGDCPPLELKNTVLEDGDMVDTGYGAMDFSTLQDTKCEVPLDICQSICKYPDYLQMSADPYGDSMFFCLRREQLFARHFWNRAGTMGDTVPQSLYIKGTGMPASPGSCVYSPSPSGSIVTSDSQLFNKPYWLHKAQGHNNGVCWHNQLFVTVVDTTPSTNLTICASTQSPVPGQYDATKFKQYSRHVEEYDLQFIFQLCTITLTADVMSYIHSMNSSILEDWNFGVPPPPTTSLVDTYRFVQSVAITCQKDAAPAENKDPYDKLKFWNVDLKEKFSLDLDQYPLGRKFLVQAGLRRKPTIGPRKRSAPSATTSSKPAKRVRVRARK

[10] = target: T7, HPV-58 L1 VLP (HPV58, UniProt P26535 27-524); test: indirect ELISA, VLP 2 ug/ml coated
T7 construct: also called HPV58VLP
T7 sequence: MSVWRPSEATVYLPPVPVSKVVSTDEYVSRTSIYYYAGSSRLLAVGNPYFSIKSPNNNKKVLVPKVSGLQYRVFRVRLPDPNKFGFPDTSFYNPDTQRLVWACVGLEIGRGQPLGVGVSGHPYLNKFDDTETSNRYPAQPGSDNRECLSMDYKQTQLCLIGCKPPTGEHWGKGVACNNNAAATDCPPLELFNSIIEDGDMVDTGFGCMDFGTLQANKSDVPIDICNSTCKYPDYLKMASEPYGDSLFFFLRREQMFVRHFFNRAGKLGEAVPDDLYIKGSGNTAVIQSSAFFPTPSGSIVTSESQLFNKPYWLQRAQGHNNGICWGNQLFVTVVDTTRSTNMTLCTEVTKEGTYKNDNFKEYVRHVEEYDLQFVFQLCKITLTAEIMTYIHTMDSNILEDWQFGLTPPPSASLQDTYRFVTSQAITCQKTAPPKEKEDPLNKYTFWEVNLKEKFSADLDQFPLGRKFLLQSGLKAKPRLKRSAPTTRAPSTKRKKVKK

| Binder | OD450 [1] [OD450] | 信号强度 (ELISA) [2] | 抑制率 [3] [%] | binding result [4] | binding result [5] | binding result [6] | binding result [7] | binding result [8] | binding result [9] | binding result [10] |
| --- | --- | --- | --- | --- | --- | --- | --- | --- | --- | --- |
| B1 | > 1 | > 1 | > 40 | – | – | – | – | – | – | – |
| B2 | > 1 | > 1 | > 40 | no binding (tested: antibody up to 20nmol/L) | no binding (tested: antibody up to 20nmol/L) | no binding (tested: antibody up to 20nmol/L) | no binding (tested: antibody up to 20nmol/L) | no binding (tested: antibody up to 20nmol/L) | no binding (tested: 0.3μg/ml) | no binding (tested: 0.3μg/ml) |
